{
  "source": "paper PMC12443421",
  "binders": {"B1": {"name": "ARID-C1 (dsDNA)", "DNA 1": "GGGCTCCCGCCCCACGAAAAG", "DNA 2": "CTTTTCGTGGGGCGGGAGCCC"}},
  "key": {"KDM5A-MutR": {"molecular_target": "T1, KDM5A-MutR (UniProt P29375 1-801, R210A;R217A;R219A;R220A;R232A;R264A;R265A;R266A;R271A;R280A;R282A)", "T1 sequence": "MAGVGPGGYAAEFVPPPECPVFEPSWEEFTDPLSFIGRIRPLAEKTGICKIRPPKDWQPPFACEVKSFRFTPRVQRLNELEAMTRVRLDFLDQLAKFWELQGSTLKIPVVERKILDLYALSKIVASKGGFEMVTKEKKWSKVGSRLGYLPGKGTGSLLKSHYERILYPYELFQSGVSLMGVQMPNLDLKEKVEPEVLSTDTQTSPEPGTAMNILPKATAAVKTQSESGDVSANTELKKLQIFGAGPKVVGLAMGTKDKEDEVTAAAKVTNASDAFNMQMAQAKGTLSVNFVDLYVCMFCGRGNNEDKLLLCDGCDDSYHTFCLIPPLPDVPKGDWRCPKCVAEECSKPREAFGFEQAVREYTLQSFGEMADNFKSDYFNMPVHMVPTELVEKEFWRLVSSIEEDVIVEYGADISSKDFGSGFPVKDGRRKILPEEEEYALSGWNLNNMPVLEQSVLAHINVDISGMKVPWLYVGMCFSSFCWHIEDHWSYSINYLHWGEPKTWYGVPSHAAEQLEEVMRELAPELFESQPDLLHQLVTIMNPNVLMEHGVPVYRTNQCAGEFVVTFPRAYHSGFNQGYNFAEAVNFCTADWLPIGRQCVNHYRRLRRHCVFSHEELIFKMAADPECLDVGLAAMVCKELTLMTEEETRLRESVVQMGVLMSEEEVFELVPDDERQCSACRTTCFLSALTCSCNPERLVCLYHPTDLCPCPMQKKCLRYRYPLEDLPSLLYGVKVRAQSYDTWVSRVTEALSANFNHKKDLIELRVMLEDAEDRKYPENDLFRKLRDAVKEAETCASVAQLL", "assay": "EMSA; Nucleosome EMSA: 100 nM nucleosome, 50 mM HEPES pH 7.5, 50 mM KCl, 1 mM BME, 0.01% Tween-20, 0.01% BSA, 5% sucrose, 1 h on ice, gel at 4 C; DNA EMSA: 100 nM DNA, TE with 10% glycerol, gel at 4 C", "conditions": "protein: recombinant; tags: 6xHis removed by TEV; blunt"}, "KDM5A-K152E": {"molecular_target": "T2, KDM5A-K152E (UniProt P29375 1-801, K152E)", "T2 sequence": "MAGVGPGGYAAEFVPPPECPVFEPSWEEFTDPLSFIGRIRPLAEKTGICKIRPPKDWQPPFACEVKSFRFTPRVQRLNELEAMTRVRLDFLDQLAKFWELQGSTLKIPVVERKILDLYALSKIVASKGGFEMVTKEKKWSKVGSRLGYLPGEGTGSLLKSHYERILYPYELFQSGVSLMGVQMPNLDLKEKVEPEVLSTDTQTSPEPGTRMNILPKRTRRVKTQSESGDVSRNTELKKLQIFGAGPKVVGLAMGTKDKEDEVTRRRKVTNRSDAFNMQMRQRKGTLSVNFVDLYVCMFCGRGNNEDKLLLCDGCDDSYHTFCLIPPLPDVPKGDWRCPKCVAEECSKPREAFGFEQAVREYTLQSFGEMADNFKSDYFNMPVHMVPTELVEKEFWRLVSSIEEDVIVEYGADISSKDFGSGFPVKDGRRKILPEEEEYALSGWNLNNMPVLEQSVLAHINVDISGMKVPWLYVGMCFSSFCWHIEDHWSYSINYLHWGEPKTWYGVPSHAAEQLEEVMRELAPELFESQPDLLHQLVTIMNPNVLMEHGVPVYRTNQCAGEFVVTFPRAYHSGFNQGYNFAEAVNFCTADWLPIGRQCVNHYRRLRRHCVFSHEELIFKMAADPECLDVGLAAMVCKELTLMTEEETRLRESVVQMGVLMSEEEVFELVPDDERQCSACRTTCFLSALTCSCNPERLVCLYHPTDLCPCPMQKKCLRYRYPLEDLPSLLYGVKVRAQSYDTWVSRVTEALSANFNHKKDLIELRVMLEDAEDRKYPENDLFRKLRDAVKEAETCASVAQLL", "assay": "EMSA; Nucleosome EMSA: 100 nM nucleosome, 50 mM HEPES pH 7.5, 50 mM KCl, 1 mM BME, 0.01% Tween-20, 0.01% BSA, 5% sucrose, 1 h on ice, gel at 4 C; DNA EMSA: 100 nM DNA, TE with 10% glycerol, gel at 4 C", "conditions": "protein: recombinant; tags: 6xHis removed by TEV; blunt"}},
  "data": [
    {"binder": "B1", "values": [
      {"measurement": "binding signal", "setting": "KDM5A-MutR", "result": "~3 fold lower affinity than KDM5A-CAT"},
      {"measurement": "binding signal", "setting": "KDM5A-K152E", "result": "~3 fold lower affinity than KDM5A-CAT"}
    ]}
  ]
}
